Each block holds one binder with its values, some of them ahead of it.
Assays:
[1] = target: T1, human FcγRIa extracellular domain with C-terminal His tag (human, UniProt P12314 16-292); assay: SPR (Biacore): antibody captured on the chip, FcγR as analyte; amount bound divided by amount of antibody captured, relative to the antibody without mutation in B3 = 100 (Reference Examples 2 and 3)
T1 construct: Whole entry named; also called FcgRIa; FcgIa

[2] = target: T2, FcγRIIIa extracellular domain with C-terminal His tag, allotype not stated (Reference Example 4) (human, UniProt P08637 17-208); assay: as above
T2 construct: extracellular domain

[3] = target: T3, human FcγRIIb extracellular domain with C-terminal His tag (human, UniProt P31994 43-217); assay: SPR (Biacore), KD by the method of Reference Example 2 (Example 9-3)
T3 construct: extracellular domain; For crystals it was expressed with kifunensine and trimmed with Endo F1; also called FcgRIIb; FcγRIIb extracellular region
T3 sequence (looked up): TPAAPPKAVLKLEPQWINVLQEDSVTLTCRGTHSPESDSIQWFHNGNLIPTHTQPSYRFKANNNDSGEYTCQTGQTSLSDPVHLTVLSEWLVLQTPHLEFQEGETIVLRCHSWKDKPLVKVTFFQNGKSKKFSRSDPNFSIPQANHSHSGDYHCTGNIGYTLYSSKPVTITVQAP
Description: These variants were used for antibody expression and purification according to the method of Reference Example 1, and binding to each FcgR (FcgRIa. FcgRIIa type H, FcgRIIa type R, FcgRIIb, and FcgRIIIa type V) was assessed using the method of Reference Example 2.

[4] = target: T4, human FcγRIIIa type V extracellular domain with C-terminal His tag (human, UniProt P08637 17-208); assay: SPR
T4 construct: extracellular domain; also called FcgRIIIaV; FcγRIIIaV

[5] = target: T1, human FcγRIa extracellular domain with …; assay: SPR
[6] = target: T5, human FcγRIIa type H extracellular domain with C-terminal His tag (human, UniProt P12318 34-217); assay: SPR
T5 construct: extracellular domain; also called FcgRIIaH; FcγRIIa H
T5 sequence (looked up): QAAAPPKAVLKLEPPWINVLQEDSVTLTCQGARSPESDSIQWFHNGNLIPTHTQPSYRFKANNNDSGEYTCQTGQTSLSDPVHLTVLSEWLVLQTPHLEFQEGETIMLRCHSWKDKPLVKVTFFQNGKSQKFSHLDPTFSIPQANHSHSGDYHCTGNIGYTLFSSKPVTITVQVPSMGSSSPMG

T1 sequence (P12314 16-292): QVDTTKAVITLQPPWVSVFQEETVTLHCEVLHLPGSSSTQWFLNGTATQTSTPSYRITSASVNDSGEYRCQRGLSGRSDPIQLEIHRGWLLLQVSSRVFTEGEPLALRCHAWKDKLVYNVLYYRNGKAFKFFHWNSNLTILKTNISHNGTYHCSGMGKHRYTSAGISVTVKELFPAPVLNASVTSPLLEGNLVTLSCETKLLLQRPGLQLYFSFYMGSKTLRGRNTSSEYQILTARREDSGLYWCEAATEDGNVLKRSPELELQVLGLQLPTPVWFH
T4 sequence (P08637 17-208 F176V): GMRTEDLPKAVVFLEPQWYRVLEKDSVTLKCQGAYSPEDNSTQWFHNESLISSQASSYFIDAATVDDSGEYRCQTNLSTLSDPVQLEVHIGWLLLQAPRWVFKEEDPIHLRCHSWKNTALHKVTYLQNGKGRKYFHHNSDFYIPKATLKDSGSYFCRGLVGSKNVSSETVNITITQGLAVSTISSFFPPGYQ
T2 sequence (P08637 17-208): as the sequence (P08637 17-208 F176V) above, with V160F counted along it

binding result [1]: binds
binding result [2]: no binding
B1: mutation A (antibody, human IgG1, kappa)
heavy chain: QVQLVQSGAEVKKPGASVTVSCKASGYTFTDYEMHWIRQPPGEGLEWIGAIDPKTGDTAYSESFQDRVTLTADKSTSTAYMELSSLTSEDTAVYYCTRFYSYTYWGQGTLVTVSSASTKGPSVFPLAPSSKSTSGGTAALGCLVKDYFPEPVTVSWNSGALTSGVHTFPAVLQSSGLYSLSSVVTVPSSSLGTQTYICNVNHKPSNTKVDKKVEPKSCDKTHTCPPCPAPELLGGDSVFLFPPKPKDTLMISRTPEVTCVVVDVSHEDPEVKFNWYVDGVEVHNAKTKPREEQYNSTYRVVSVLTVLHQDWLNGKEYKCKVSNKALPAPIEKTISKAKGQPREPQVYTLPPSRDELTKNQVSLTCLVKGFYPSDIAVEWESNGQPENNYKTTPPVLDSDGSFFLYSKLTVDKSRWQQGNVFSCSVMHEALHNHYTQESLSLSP
light chain: DIVMTQSPLSLPVTPGEPASISCQASESLVHSNRNTYLHWYLQKPGQSPQLLIYKVSNRFSGVPDRFSGSGSGTDFTLKISRVEAEDVGVYYCSQNTHVPPTFGQGTKVEIERTVAAPSVFIFPPSDEQLKSGTASVVCLLNNFYPREAKVQWKVDNALQSGNSQESVTEQDSKDSTYSLSSTLTLSKADYEKHKVYACEVTHQGLSSPVTKSFNRGEC

binding result [3]: binds
B2: IL6R-BP264/IL6R-L (antibody, human IgG1, kappa)
heavy: QVQLQESGPGLVKPSETLSLTCAVSGHSISHDHAWSWVRQPPGEGLEWIGFISYSGITNYNPSLQGRVTISRDNSKNTLYLQMNSLRAEDTAVYYCARSLARTTAMDYWGEGTLVTVSSASTKGPSVFPLAPSSKSTSGGTAALGCLVKDYFPEPVTVSWNSGALTSGVHTFPAVLQSSGLYSLSSVVTVPSSSLGTQTYICNVNHKPSNTKVDKKVEPKSCDKTHTCPPCPAPDLLGDDSVFLFPPKPKDTLMISRTPEVTCVVVDVSEEDGEVKFNWYVDGVEVHNAKTKPREEQDNSTYRVVSVLTVLHQDWLNGKEYKCKVSNKALPRPIEKTISKAKGQPREPQVYTLPPSRDELTKNQVSLTCLVKGFYPSDIAVEWESNGQPENNYKTTPPVLDSDGSFFLYSKLTVDKSRWQQGNVFSCSVMHEALHNHYTQESLSLSP
light: not shown

binding result [4]: binds
binding result [5]: binds
binding result [6]: binds
B3: IL6R-BP253/IL6R-L (antibody, human IgG1, kappa)
heavy: QVQLQESGPGLVKPSETLSLTCAVSGHSISHDHAWSWVRQPPGEGLEWIGFISYSGITNYNPSLQGRVTISRDNSKNTLYLQMNSLRAEDTAVYYCARSLARTTAMDYWGEGTLVTVSSASTKGPSVFPLAPSSKSTSGGTAALGCLVKDYFPEPVTVSWNSGALTSGVHTFPAVLQSSGLYSLSSVVTVPSSSLGTQTYICNVNHKPSNTKVDKKVEPKSCDKTHTCPPCPAPELLGGPSVFLFPPKPKDTLMISRTPEVTCVVVDVEHEDPEVKFNWYVDGVEVHNAKTKPREEQYNSTYRVVSVLTVLHQDWLNGKEYKCKVSNKAFPAPIEKTISKAKGQPREPQVYTLPPSRDELTKNQVSLTCLVKGFYPSDIAVEWESNGQPENNYKTTPPVLDSDGSFFLYSKLTVDKSRWQQGNVFSCSVMHEALHNHYTQESLSLSP
light: not shown
notes: IL6R-B3 with S267E and L328F; also called IL6R-BP253/ILR-L
